{"source": "patent US20210284695A1", "about": "“FOLDED AND PROTEASE-RESISTANT POLYPEPTIDES” (UNIVERSITY OF WASHINGTON, priority 2017, published 2021)", "type": "physicochemical", "experimental": "FIG. 2. Biophysical characterization of designed minimal proteins. (A) Design models and NMR solution ensembles for designed minimal proteins. (B) Far-ultraviolet circular dichroism (CD) spectra at 25° C. (black), 95° C. (red), and 25° C. following melting (blue). (C) Thermal melting curves measured by CD at 220 nm. Melting temperatures determined using the derivative of the curve. (D) Chemical denaturation in GuHCl measured by CD at 220 nm and 25° C. Unfolding free energies determined by fitting to a two-state model (red solid line).\nFar-ultraviolet CD measurements were carried out with an AVIV spectrometer, model 420. Wavelength scans were measured from 260 to 195 nm at 25 and 95° C. Temperature melts monitored dichroism signal at 220 nm in steps of 2° C./minute with 30 s of equilibration time. […] The GuHCl concentration was determined by refractive index in PBS buffer. The denaturation process monitored dichroism signal at 220 nm in steps of 0.2 M GdmCl with 1 minute mixing time for each step, at 25° C. Protein concentrations were determined by absorbance at 280 nm measured using a NanoDrop™ spectrophotometer (Thermo Scientific) using predicted extinction coefficients (65). Protein concentrations for designs lacking aromatic amino acids were measured by Qubit™ protein assay (ThermoFisher Scientific). […]"}
{"sequence": "TTVKGDIKVTFDNPEKAKKYAQKLAKIYQLTVHVHGDTIHVK [EEHEE_rd3_1049]", "values": [{"measurement": "stability of purified design (CD, in words)", "result": "very stable"}]}
